Experimental findings from patent publication US20220119522A1 (DENALI THERAPEUTICS, published 2022) are described below.

No end group written: not given here.

Experiment [1] addresses T1, human TREM2 full length stalk region peptide (aa 129-172) (human, biotinylated (site not stated)).
T1 construct: also called Human TREM2 peptide (aa 129-172); full-length TREM2 stalk peptide
T1 peptide: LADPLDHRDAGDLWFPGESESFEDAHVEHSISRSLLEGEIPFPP
The experiment can be described thus: ELISA on biotinylated peptide captured by streptavidin; A450 normalised to isotype control. The method, then: (§1) TREM2 antibodies were evaluated for binding to human and mouse TREM2 stalk region peptides. […] Antibody binding to TREM2 stalk peptides was detected using standard sandwich ELISA. Briefly, a 96-well half-area ELISA plate was coated with streptavidin overnight at 4° C. The following day, biotinylated TREM2 stalk peptides diluted in 1% BSA/PBS were added to the plate and incubated for 1 hour. Antibodies diluted in 1% BSA/PBS were then added and incubated for 1 hour. Antibodies bound to peptide were detected with anti-human kappa-HRP secondary antibody (Bethyl Laboratories, Inc.) diluted in 1% BSA/PBS. Plates were assayed by reaction with a detection reagent (One-step TMB Ultra, Thermo) and measurement of absorbance at 450 nm (A450) by standard spectrophotometry instrumentation (BioTek®). Data are shown as normalized values (fold over background where background=isotype control).
A general note: ELISA stands for enzyme-linked immunosorbent assay.

In experiment [2] the target is T2, mouse TREM2 full length stalk region peptide (aa 131-169) (mouse, UniProt Q99NH8 131-169, biotinylated (site not stated)).
T2 peptide (looked up): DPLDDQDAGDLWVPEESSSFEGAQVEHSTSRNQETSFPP
The description is as above. The method, then:
as §1

Experiment [3] addresses T3, human TREM2 truncated stalk peptide (aa 149-163) (human, also: biotinylated (site not given here)).
T3 construct: also called Human TREM2 peptide (aa 149-163); truncated stalk peptide containing the ADAM10/17 cleavage site
T3 peptide: SFEDAHVEHSISRSL
Described as above. The method, then:
as §1

Experiment [4] deals with T4, human TREM2 on the cell surface (human, UniProt Q9NZC2 19-230).
T4 sequence: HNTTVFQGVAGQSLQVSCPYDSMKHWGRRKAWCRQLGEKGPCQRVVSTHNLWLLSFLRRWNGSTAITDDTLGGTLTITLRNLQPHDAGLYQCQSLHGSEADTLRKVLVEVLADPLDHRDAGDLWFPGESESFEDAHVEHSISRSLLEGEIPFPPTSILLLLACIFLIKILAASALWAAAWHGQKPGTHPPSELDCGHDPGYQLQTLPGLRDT
The experiment can be described thus: cell-based or functional assay.

In experiment [5] the target is T4, human TREM2 on the cell surface. The experiment can be described thus: cell binding, human macrophages, dose titration.
Experiment [6] deals with T5, His-tagged human TREM2 ECD (human, UniProt Q9NZC2 19-172).
T5 construct: Biacore and HDX say only recombinant human TREM2 (ECD); also called recombinant human TREM2; hTREM2
T5 sequence: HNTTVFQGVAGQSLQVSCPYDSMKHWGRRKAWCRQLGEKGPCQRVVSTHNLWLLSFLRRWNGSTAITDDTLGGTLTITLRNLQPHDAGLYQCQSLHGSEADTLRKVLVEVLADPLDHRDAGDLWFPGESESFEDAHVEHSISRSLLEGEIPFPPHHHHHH
Briefly: SPR (Biacore), antibody captured via anti-human Fab, recombinant TREM2 ECD injected, 1:1 fit. The method, then: Surface plasmon resonance (Biacore™ 8K instrument) was used to measure anti-TREM2 antibody affinities for human and cynomolgus TREM2 ECD. Anti-TREM2 antibodies were captured using Human Fab Capture Kit (GE Healthcare Life Sciences, Catalog No. 28958325) on a Biacore Series S CM5 sensor chip (GE Healthcare Life Sciences, Catalog No. 29149604). Serial 3-fold dilutions of recombinant human or cynomolgus TREM2 were injected at a flow rate of 30 μL/min. Antibody binding was monitored for 300 seconds, followed by monitoring of antibody dissociation for 600+seconds in HBS-EP+ running buffer (GE Healthcare Life Sciences, Catalog No. BR100669). The binding response was corrected by subtracting the RU value from a blank flow cell. A 1:1 Languir model of simultaneous fitting of kₒₙ and koff was used for kinetics analysis.
On the technique in general: SPR reads the build-up and loss of mass on a sensor chip optically.

B1: CL0020214 (antibody, V domains shown)
VH: QVRLQQSGAELVRPGSSVKLSCKASGYAFSSYWMNWVKQRPGQGLEWIGQIYPGDGDTNYNGNFKGKATLTADNSSSTAYMQLSSLTSEDSAVYFCARRRNGDFGDYAMDYWGQGTSVTVSS
VL: QIVLTQSPAIMSASPGEKVTISCSASSSVSYMCWYQQKPGSSPKPWIYRTSTLASGVPARFSGSGSGTSYSLTISSMEAADAATYYCQHYHSYPFTFGAGTKLELK
notes: also called Clone CL0020214
As for B1, the “fold over background (A450)” value in experiment [1] was 1.5 fold; in experiment [2] it was 1.3 fold; in experiment [3] it was 1.3 fold.

B2: CL0020161 (antibody, V domains shown)
VH: EVQLVESGGGLVQPGRSMKLSCAALGFTFSNYYMAWVRQAPRKGLEWVASISTGGDNTYYRDSVKGRFTISRDNAKSTLYMQMDSLRSEDTATYYCVRSFIVGTTGYYFDYWGQGVMVTVSS
VL: DIVLTQSPALAVSLGQRATISCKTNQNVDYYGNNYMHWYQQTPGQQPKLLIYFASNLASGIPARFSGRGSGTDFTLTIDPVEADDTATYYCQQSRNLPTFGGGTKLELK
notes: also called Clone CL0020161
B2: the “fold over background (A450)” value in experiment [1] was 1.4 fold; in experiment [2], 1.2 fold; in experiment [3], 1 fold.

B3: CL0020186 (antibody, V domains shown)
VH: EVQLVESGGGLVQPGRSLKLSCPASGFTFSYYGMAWVRQAPTKGLEWVASISTGGGNTYYRDSVKGRFTISRDNAKNTLYLQMDSLRSEDTATYYCARGDIGTAYWFTYWGQGTLVTVSS
VL: NIQLTQSPSLLSASVGDRVTLSCKGSQNINNYLAWYQQKLGEAPKLLIYKTNSLLTGIPSRFSGSGSGTDYTLTISSLHSEDLATYYCYQYNNGWTFGGGTKLELK
notes: also called Clone CL0020186
For B3, the “fold over background (A450)” value in experiment [1] stood at 4.9 fold; in experiment [2], 7 fold; in experiment [3], 1.3 fold.

B4: CL0020215 (antibody, V domains shown)
VH: QVQLQQPGAELVKPGASVKMSCKASGYTFTNYWIMWVKQRPGQGLEWIGDIYPSSGSTNYNEKFKNRATLTVDTSSNTAYMQLSSLTSEDSAVYFCSREGYGISAWGQGTTLTVSS
VL: QIVLTQSPAIMSASPGEKVTITCSASSSVSYMHWFQQKPGTSPKLWIYSTSNLASGVPARFSGSGSGTSCSLTISRMEAEDAATYYCQQRSSFPLTFGAGTKLELK
notes: also called Clone CL0020215
Regarding B4, the “fold over background (A450)” value was found to be 1.2 fold in experiment [1], 1.1 fold in experiment [2] and 1.1 fold in experiment [3].

B5: CL0020111 (antibody, V domains shown)
VH: QVQLQQPGADLVKPGASVKMSCKASGYTFTNYWITWVQQRPGQGLEWIGDIYPGSGNTNYNEKFRSKATLTVDTSSNTAYMQLSSLTSEDSAVYYCSREGYGISAWGQGTTLTVSS
VL: QIVLTQSPAFMSASPGEKVTITCRASSSVSYMHWFQQKPGTSPKLWIFSTSNLASGVPARFSGSGSGTSHSLTISRMEAEDAATYYCQQRSGYPLTFGAGTKLELK
notes: also called Clone CL0020111
Take B5: the results for the “fold over background (A450)” value in experiment [1], in experiment [2] and in experiment [3] were 1.3 fold, 1.1 fold and 1.6 fold, respectively.

B6: CL0020173 (antibody, V domains shown)
VH: EVKLLESGGGLVQPGSSMRLSCAASGFTFTDFYMNWIRQPAGRAPEWLGFFRNIVDGYTTEYNPSVKGRFTISRDNTQNMLYLQMNTLRAEDTATYYCARSGYSSYIYGGTFAYWGQGTLVTVSS
VL: ETVMTQSPTSMSTSIGERVTLNCKASQSVGIHVDWYQQTPGQSPKLLIYGASNRHTGVPDRFTGSGFGRDFTLTISNVEAEDLAVYYCLQYGSIPWTFGGGTKLELK
notes: also called Clone CL0020173
Take B6: the results for the “fold over background (A450)” value in experiment [1], in experiment [2] and in experiment [3] were 1.6 fold, 1.2 fold and 1.2 fold, respectively.

B7: CL0020124 (antibody, V domains shown)
VH: EVQLQQSGPVLVKPGASVKMSCKPSGYTFTDYYMNWVKQSHGKSLEWIGSINPYTGGSSYNQKFRGKATLTVDKSSSTAYMELNSLTSEDSAVYYCARGSYYSNLGFAYWGQGTLVTVSA
VL: DVQLTQSPSYLTASPGETITINCRASKSISKYLAWYQEKPGKTNKLLISSGSTLQSGIPSRFSGSGSGTDFTLTISSLEPEDFAMYYCQQYSEYPFTFGSGTKLEIK
notes: also called Clone CL0020124
As to B7, the “fold over background (A450)” value came to 1.6 fold in experiment [2] and 1.5 fold in experiment [3].

B8: CL0020103 (antibody, V domains shown)
VH: EVQLQQSGPELVKPGASVKISCKTSGYTFTEYTMHWVKESHGKSLEWIGGINPNKGGSSYNQKFKGKATLTVDKSSSTAYMDLRRLTSEDSAVYYCARGGYEYYALDYWGQGTSVTVSS
VL: DIVMSQSPSSLTVSVGERVTMSCKSSQSLLYSRNQKNYLAWYQQKPGQSPKLLIYWASTRESGVPDRFTGSGSGTDFSLTISSVKAEDLAVYYCQQYYSYPPTFGGGTKLEIK
notes: also called Clone CL0020103
Turning to B8, the results for the “fold over background (A450)” value in experiment [1], in experiment [2] and in experiment [3] were 56 fold, 4.1 fold and 1.8 fold, respectively.

B9: CL0020164 (antibody, V domains shown)
VH: EVKLLESGGGLVQPGGSLRLSCAASGFTFTDFYMSWIRQPPGKAPEWLGVIRNKANGFTTEYNTSVKGRFTISRDYTQNILHLQTNTLRAEDTAIYYCARLTYGFDYWGQGVMVTVSS
VL: DIVMTQGALPNPVPSGESASITCQSSKSLLHSNGKTYLNWYLQRPGQSPQFLIYWMSTRASGVSDRFSGSGSGTDFTLKISSVEAEDVGVYYCQQFLELPFTFGSGTKLEIK
notes: also called Clone CL0020164
For the molecule B9, the results for the “fold over background (A450)” value in experiment [1], in experiment [2] and in experiment [3] were 50 fold, 51 fold and 1.4 fold, respectively.

B10: CL0020141 (antibody, V domains shown)
VH: EVTLVESGGGLVQPGGSLRLSCATSGFTFTDYYMSWVRQPPGKALEWLGFIRDKANGYTTDYSASVKGRFTISRDNSQNILYLQMNTLRAEDSATYYCSRLLRAQGFAYWGQGTLVTVSA
VL: DIVMSQSPSSLGVSIGEKVIMSCTSGQSLLYSNNQKNYLAWYQQKPGQSPKLLIYWASTRESGVPDRFTGSGSGTDFTLTINSVKAEDLAVYYCQQYYRNPFTFGSGTKLEIK
notes: also called Clone CL0020141
As a reminder, the EC50 is the midpoint of the concentration-response curve. Low readings indicate higher potency in that assay, high ones lower potency in that assay. As a reminder, the Kd is a measure of binding affinity in units of concentration. Consider B10, for which, in experiment [4], the “NFAT EC50 (nM), plate coated mAb” value worked out at 25.5 nM; the “Survival EC50 (nM), plate coated mAb, human macrophages” value is 2 nM; the “pSyk activation (human macrophages) EC50 (nM)” value was determined as 5.9 nM. Besides, in experiment [1], the “fold over background (A450)” value was 45 fold. This molecule gave an EC50 in experiment [5] of 0.6 nM. Also, the Kd in experiment [6] was determined as 4.6 nM.

B11: CL0020109 (antibody, V domains shown)
VH: EVQLQQSGPVLVKPGASLKMSCRASGYTFTDYYVHWVKQSHGKSLEWIGLINPYTGTTSYNQRFKGKATLTVDKSSSTAYMEVNSLTSEDSAVYYCARSRVYYGSSLFAFWGQGTLVTVSA
VL: DIVMTQSPSSLSVSAGEKVTMSCKSSQSLLNSGNQKNYLAWYQQKPGQPPKLLIYGASTRESGVPDRFTGSGSGTDFTLTISSVQAEDLAVYYCQNDHSYPYTFGGGTKLEIK
notes: also called Clone CL0020109
As to B11, the “fold over background (A450)” value in experiment [1] was 1.7 fold; in experiment [2] it was 1.7 fold; in experiment [3] it was 1.5 fold.

B12: CL0020162 (antibody, V domains shown)
VH: QIQLVQSGPELKKPGESLKISCKASGYTFTDYAMQWVKQAPEKGLQYMGWINTQTGKPTYADDFKERFVFSLETSATTAYLQINNLKNEDMATYFCVRSYNNYENWFAYWGQGTLVTVSS
VL: DIVMTQSPSSLAVSAGETVTINCKSSQSLLYSGNQKNYLAWYQQKPGQSPKVLIYWASTRQFGVPDRFIGSGSGTDFTLTISSVQAEDLAIYYCQQYYNSPITFGSGTKLEIK
notes: also called Clone CL0020162
On to B12, for which the “fold over background (A450)” value in experiment [1] was found to be 49 fold; in experiment [2], 10 fold; in experiment [3], 1.3 fold.
